Experimental data as given in the supplement of paper PMC11246515.
± gives the standard deviation of the averaged measurements.

Test: total protein half-life in vivo (active degradation + dilution); higher = more stable protein
[1] = E. coli NCM3722 delta-clpP, growth: N-lim chemostat, doubling time 6 h
[2] = E. coli NCM3722 delta-lon, growth: N-lim chemostat, doubling time 6 h
[3] = E. coli NCM3722 delta-smpB, growth: N-lim chemostat, doubling time 6 h
[4] = wild type E. coli NCM3722, growth: N-lim chemostat, doubling time 6 h
[5] = wild type E. coli NCM3722, growth: N-lim chemostat, doubling time 12 h
[6] = E. coli NCM3722 delta-hslV, growth: N-lim chemostat, doubling time 6 h
[7] = wild type E. coli NCM3722, growth: C-lim chemostat, doubling time 3 h
[8] = wild type E. coli NCM3722, growth: C-lim chemostat, doubling time 6 h
[9] = wild type E. coli NCM3722, growth: C-lim chemostat, doubling time 12 h
[10] = E. coli NCM3722 delta-clpP delta-lon delta-hslV, growth: N-lim chemostat, doubling time 6 h
[11] = wild type E. coli NCM3722, growth: P-lim chemostat, doubling time 6 h
[12] = wild type E. coli NCM3722, growth: P-lim chemostat, doubling time 12 h

Sequence	total protein half-life in vivo [1]	total protein half-life in vivo [2]	total protein half-life in vivo [3]	total protein half-life in vivo [4]	total protein half-life in vivo [5]	total protein half-life in vivo [6]	total protein half-life in vivo [7]	total protein half-life in vivo [8]	total protein half-life in vivo [9]	total protein half-life in vivo [10]	total protein half-life in vivo [11]	total protein half-life in vivo [12]
MIGRISRFMTRFVSRWLPDPLIFAMLLTLLTFVIALWLTPQTPISMVKMWGDGFWNLLAFGMQMALIIVTGHALASSAPVKSLLRTAASAAKTPVQGVMLVTFFGSVACVINWGFGLVVGAMFAREVARRVPGSDYPLLIACAYIGFLTWGGGFSGSMPLLAATPGNPVEHIAGLIPVGDTLFSGFNIFITVALIVVMPFITRMMMPKPSDVVSIDPKLLMEEADFQKQLPKDAPPSERLEESRILTLIIGALGIAYLAMYFSEHGFNITINTVNLMFMIAGLLLHKTPMAYMRAISAAARSTAGILVQFPFYAGIQLMMEHSGLGGLITEFFINVANKDTFPVMTFFSSALINFAVPSGGGHWVIQGPFVIPAAQALGADLGKSVMAIAYGEQWMNMAQPFWALPALAIAGLGVRDIMGYCITALLFSGVIFVIGLTLF	5.89 h	5.21 h	5.88 h	5.5 h	15.3 h							
MTEHTSSYYAASANKYAPFDTLNESITCDVCVVGGGYTGLSSALHLAEAGFDVVVLEASRIGFGASGRNGGQLVNSYSRDIDVIEKSYGMDTARMLGSMMFEGGEIIRERIKRYQIDCDYRPGGLFVAMNDKQLATLEEQKENWERYGNKQLELLDANAIRREVASDRYTGALLDHSGGHIHPLNLAIGEADAIRLNGGRVYELSAVTQIQHTTPAVVRTAKGQVTAKYVIVAGNAYLGDKVEPELAKRSMPCGTQVITTERLSEDLARSLIPKNYCVEDCNYLLDYYRLTADNRLLYGGGVVYGARDPDDVERLVVPKLLKTFPQLKGVKIDYRWTGNFLLTLSRMPQFGRLDTNIYYMQGYSGHGVTCTHLAGRLIAELLRGDAERFDAFANLPHYPFPGGRTLRVPFTAMGAAYYSLRDRLGV	6.23 h	3.84 ± 1.7 h		1.81 h	6.25 ± 7.7 h	5.96 ± 0.34 h	0.265 h	6.7 h	4.55 h			
MKKTAIAIAVALAGFATVAQAAPKDNTWYTGAKLGWSQYHDTGFINNNGPTHENQLGAGAFGGYQVNPYVGFEMGYDWLGRMPYKGSVENGAYKAQGVQLTAKLGYPITDDLDIYTRLGGMVWRADTKSNVYGKNHDTGVSPVFAGGVEYAITPEIATRLEYQWTNNIGDAHTIGTRPDNGMLSLGVSYRFGQGEAAPVVAPAPAPAPEVQTKHFTLKSDVLFNFNKATLKPEGQAALDQLYSQLSNLDPKDGSVVVLGYTDRIGSDAYNQGLSERRAQSVVDYLISKGIPADKISARGMGESNPVTGNTCDNVKQRAALIDCLAPDRRVEIEVKGIKDVVTQPQA [P0A910]	6.96 ± 0.27 h	7.032 ± 0.055 h	5.84 ± 0.27 h	6.3 ± 0.41 h	13.6 ± 0.81 h	6.86 ± 0.49 h	3.41 ± 0.11 h	6.7 ± 0.097 h	13 ± 1.5 h	6.64 ± 0.48 h	6.224 ± 0.024 h	15 ± 0.76 h
MSNKMTGLVKWFNADKGFGFISPVDGSKDVFVHFSAIQNDNYRTLFEGQKVTFSIESGAKGPAAANVIITD	0.486 ± 0.036 h	0.617 ± 0.26 h		0.537 h	0.434 h	0.454 h	2.03 h		0.407 h	0.427 ± 0.069 h		1.16 h
MKLLQRGVALALLTTFTLASETALAYEQDKTYKITVLHTNDHHGHFWRNEYGEYGLAAQKTLVDGIRKEVAAEGGSVLLLSGGDINTGVPESDLQDAEPDFRGMNLVGYDAMAIGNHEFDNPLTVLRQQEKWAKFPLLSANIYQKSTGERLFKPWALFKRQDLKIAVIGLTTDDTAKIGNPEYFTDIEFRKPADEAKLVIQELQQTEKPDIIIAATHMGHYDNGEHGSNAPGDVEMARALPAGSLAMIVGGHSQDPVCMAAENKKQVDYVPGTPCKPDQQNGIWIVQAHEWGKYVGRADFEFRNGEMKMVNYQLIPVNLKKKVTWEDGKSERVLYTPEIAENQQMISLLSPFQNKGKAQLEVKIGETNGRLEGDRDKVRFVQTNMGRLILAAQMDRTGADFAVMSGGGIRDSIEAGDISYKNVLKVQPFGNVVVYADMTGKEVIDYLTAVAQMKPDSGAYPQFANVSFVAKDGKLNDLKIKGEPVDPAKTYRMATLNFNATGGDGYPRLDNKPGYVNTGFIDAEVLKAYIQKSSPLDVSVYEPKGEVSWQ	5.69 ± 0.46 h	6.44 ± 0.24 h	5.9 ± 0.07 h	6.62 ± 0.42 h	12.4 ± 1.3 h	6.306 ± 0.01 h	3.091 ± 0.03 h	6.01 ± 0.52 h	12.9 ± 0.35 h	5.52 ± 0.41 h	5.21 ± 0.21 h	11.2 ± 0.18 h
MGHKPLYRQIADRIREQIARGELKPGDALPTESALQTEFGVSRVTVRQALRQLVEQQILESIQGSGTYVKEERVNYDIFQLTSFDEKLSDRHVDTHSEVLIFEVIPADDFLQQQLQITPQDRVWHVKRVRYRKQKPMALEETWMPLALFPDLTWQVMENSKYHFIEEVKKMVIDRSEQEIIPLMPTEEMSRLLNISQTKPILEKVSRGYLVDGRVFEYSRNAFNTDDYKFTLIAQRKSSR	5.47 ± 0.059 h	4.83 ± 0.42 h	4.99 ± 0.07 h	5.354 ± 0.041 h	9.53 ± 0.028 h	5.26 ± 0.32 h	2.985 ± 0.0092 h			5.56 ± 0.42 h	5.8 ± 0.12 h	12.1 ± 1.1 h
MDTELLKTFLEVSRTRHFGRAAESLYLTQSAVSFRIRQLENQLGVNLFTRHRNNIRLTAAGEKLLPYAETLMSTWQAARKEVAHTSRHNEFSIGASASLWECMLNQWLGRLYQNQDAHTGLQFEARIAQRQSLVKQLHERQLDLLITTEAPKMDEFSSQLLGYFTLALYTSAPSKLKGDLNYLRLEWGPDFQQHEAGLIGADEVPILTTSSAELAQQQIAMLNGCTWLPVSWARKKGGLHTVVDSTTLSRPLYAIWLQNSDKNALIRDLLKINVLDEVY [P0A8R9]	4.82 ± 0.081 h		4.1 ± 0.12 h	4.72 ± 0.46 h	7.65 ± 0.25 h	4.553 ± 0.02 h	3.05 ± 0.072 h	5.676 ± 0.025 h	9.53 ± 0.73 h	5.38 ± 0.37 h	6.13 ± 0.24 h	11.7 ± 2 h
MDVSYLLDSLNDKQREAVAAPRSNLLVLAGAGSGKTRVLVHRIAWLMSVENCSPYSIMAVTFTNKAAAEMRHRIGQLMGTSQGGMWVGTFHGLAHRLLRAHHMDANLPQDFQILDSEDQLRLLKRLIKAMNLDEKQWPPRQAMWYINSQKDEGLRPHHIQSYGNPVEQTWQKVYQAYQEACDRAGLVDFAELLLRAHELWLNKPHILQHYRERFTNILVDEFQDTNNIQYAWIRLLAGDTGKVMIVGDDDQSIYGWRGAQVENIQRFLNDFPGAETIRLEQNYRSTSNILSAANALIENNNGRLGKKLWTDGADGEPISLYCAFNELDEARFVVNRIKTWQDNGGALAECAILYRSNAQSRVLEEALLQASMPYRIYGGMRFFERQEIKDALSYLRLIANRNDDAAFERVVNTPTRGIGDRTLDVVRQTSRDRQLTLWQACRELLQEKALAGRAASALQRFMELIDALAQETADMPLHVQTDRVIKDSGLRTMYEQEKGEKGQTRIENLEELVTATRQFSYNEEDEDLMPLQAFLSHAALEAGEGQADTWQDAVQLMTLHSAKGLEFPQVFIVGMEEGMFPSQMSLDEGGRLEEERRLAYVGVTRAMQKLTLTYAETRRLYGKEVYHRPSRFIGELPEECVEEVRLRATVSRPVSHQRMGTPMVENDSGYKLGQRVRHAKFGEGTIVNMEGSGEHSRLQVAFQGQGIKWLVAAYARLESV	5.48 ± 0.56 h	4.29 ± 0.12 h	3.45 ± 0.13 h	3.781 ± 0.029 h	5.67 ± 0.15 h	3.81 ± 0.25 h	2.96 ± 0.033 h	4.72 ± 0.42 h	8.03 ± 1.1 h	6.25 ± 0.18 h	4.83 ± 0.25 h	7.8 ± 0.18 h
MIEKIWSGESPLWRLLLPLSWLYGLVSGAIRLCYKLKLKRAWRAPVPVVVVGNLTAGGNGKTPVVVWLVEQLQQRGIRVGVVSRGYGGKAESYPLLLSADTTTAQAGDEPVLIYQRTDAPVAVSPVRSDAVKAILAQHPDVQIIVTDDGLQHYRLARDVEIVVIDGVRRFGNGWWLPAGPMRERAGRLKSVDAVIVNGGVPRSGEIPMHLLPGQAVNLRTGTRCDVAQLEHVVAMAGIGHPPRFFATLKMCGVQPEKCVPLADHQSLNHADVSALVSAGQTLVMTEKDAVKCRAFAEENWWYLPVDAQLSGDEPAKLLTQLTLLASGN	6.49 h	6.39 ± 0.34 h	5.71 ± 0.64 h	5.52 h		6.52 ± 1.2 h	3.11 ± 0.41 h	7.25 ± 0.18 h	8.44 h	6.05 ± 0.42 h		13.8 ± 2 h
MMKLMFASDIHGSLPATERVLELFAQSGAQWLVILGDVLNHGPRNALPEGYAPAKVAERLNEVAHKVIAVRGNCDSEVDQMLLHFPITAPWQQVLLEKQRLFLTHGHLFGPENLPALNQNDVLVYGHTHLPVAEQRGEIFHFNPGSVSIPKGGNPASYGMLDNDVLSVIALNDQSIIAQVAINP	4.01 ± 0.21 h	4.04 ± 0.35 h	3.97 ± 0.34 h	4 ± 0.66 h	6.84 ± 0.35 h	3.75 ± 0.28 h	2.7 ± 0.24 h	5.48 ± 0.14 h	9.4066 ± 0.0045 h		5.32 ± 0.64 h	10.1 ± 0.38 h
MLRHITFTVFITTSMNTLATGMVPETSVLLVDEKRGEASINIKNTDDHPSLLYTTIVDLPESNKSIRLIPTQPVIRVEAGQVQQVRFLLQATVPLQSEELKRVTFEGIPPKDDKSSRVTVSIRQDLPVLIHPASLPEERETWKFLEWRKNGDQIEISNPSNYVVRMTLQFKTLPSGKTGAINKTYFLPHTSTTTALTNATDTKVEFYPASRYGYRGNKYVTDLK											4.81 h	
